From patent US20100092505A1, “Method for Shielding Functional Sites or Epitopes on Proteins” (priority 2005, published 2010)
Where no end group is shown, it is not given here.

Legend:
[1] = Isoelectric point (pI) of chimeric peptides and gp41 mimetics; type: physicochemical
[2] = disulfide-linked trimer; refers to U.S. Provisional Applications 60/576,062 and 60/636,724; cited from earlier work
[3] = system: guinea pigs; assay: ELISA of sera from guinea pigs immunized under homologous and heterologous Prime/Boost regimens; type: in vivo; details: guinea pig serum; prime plus two boosts; PEGylated vaccine in both homologous and heterologous modality; QS21 adjuvant
Procedure: The Prime/Boost pair is shown below each group of bars. The ELISA geometric mean titers (GMT) against each antigen are a true reflection of the relative amount of antibodies with the corresponding specificity present in the serum.
Immunogenicity of the SMW-PEGylated vaccine—Animal studies were conducted in guinea pigs to compare the antibody response elicited by the non-PEGylated vaccine (CCIZN17)3 and the PEGylated vaccine (CCIPN17)3. The latter was used both in a homologous modality (i.e., using a priming injection with the antigen, followed by two boost injections with the same antigen) and a heterologous modality (i.e., using a priming injection with the non-PEGylated antigen (CCIZN17)3, followed by two boost injections with the PEGylated antigen (CCIPN17)3) (see FIG. 4). The PEGylated antigens were administered to the animals along with QS21 as an adjuvant (Antigenics; New York, N.Y.). Analysis of the immune response was performed by ELISA. To eliminate any bias due to differences in the absorption capacity of the antigens on the ELISA plate, all the capture antigens were biotinylated, and the ELISA plate was coated with streptavidin prior to the addition of the capture biotinylated molecules. […] This is identical in (CCIZN17)3 and (CCIPN17)3 and, accordingly, the measured GMT are identical when measured against either antigen.

[4] = system: patients; details: cited from earlier work

IEKKIEEIEKKIEEIEKKIEEIEKLLQLTVWGIKQLQARIL [EZN17]
pI ([1]; chimeric N-peptide): 5.2

(CCGGIKKEIEAIKKEQEAIKKKIEAIEKLLQLTVWGIKQLQARIL)3 (not fully specified (N-terminus, C-terminus, bridges); printed as (CCGGIKKEIEAIKKEQEAIKKKIEAIEKLLQLTVWGIKQLQARIL)3; also: disulfide-linked trimer) [(CCIZN17)3]
stability relative to the non-covalent IZN17 trimeric coiled-coil [2]: more stable than the original IZN17 trimeric coiled-coil | antibody response against the scaffold moiety (ELISA GMT, capture antigens (Biotin-CCIZ)3 and (Biotin-CCIP)3) [3]: comparable amounts against the whole antigen and the scaffold moiety alone

(CCGGIEKKIEEIEKKIEEIEKKIEEIEKLLQLTVWGIKQLQARIL)3 [(CCEZN17)3]
pI ([1]; Table 6, gp41 mimetics): 5.30

IKKEIEAIKKEQEAIKKKIEAIEKLLQLTVWGIKQLQARIL [IZN17]
pI ([1]; chimeric N-peptide): 10.7

AN-1792: Elan/Wyeth Aβ 1-42 peptide vaccine for Alzheimer disease, clinical trial discontinued
therapeutic effect in the clinical trial ([4]; patients with high titers of Aβ antibodies): reduction of plaque and some limited stabilization of memory | adverse effect that led to discontinuation of the clinical trial ([4]; patients, attributed to a T-cell response to the COOH-terminal region of Aβ): severe brain inflammation problems | induction of antibodies specific for the pathological form of Aβ ([4]; vaccinated patients): induced in the majority of patients
